# Reference: US5869271A, “G-beta-gamma regulated phosphatidylinositol-3' kinase” (Onyx Pharmaceuticals, priority 1997, dated 1999)
# B1: p120: catalytic subunit of the G protein-regulated PI3K; the b332 result is for the form after complete thrombin cleavage (protein)
# chain: MELENYEQPVVLREDNRRRRRRMKPRSTAASLSSMELIPIEFVLATSQRNTKTPETALLHVAGHGNVEKMKAQVLLRALETSVSWDFYHRFGPDHFLLVFQKKGEWYEIYDKYQVVQTLDCLRYWEVLHRSPGQIHVVQRHAPSEETLAFQRQLNALIGYDVTDVSNVHDDELEFTRRRLVTPRMAEVAGRDPKLYAMHPWVTSKPLPEYLLKKITNNCVFIVIHRSTTSQTIKVSADDTPGTILQSFFTKMAKKKSLMDIPESQNERDFVLRVCGRDEYLVGETPIKNFQWVRQCLKNGEEIHLVLDTPPDPALDEVRKEEWPLVDDCTGVTGYHEQLTIHGKDHESVFTVSLWDCDRKFRVKIRGIDIPVLPRTADLTVFVEANIQYGQQVLCQRRTSPKPFTEEVLWNVWLEFSIKIKDLPKGALLNLQIYCGKAPALSGKTSAEMPSPESKGKAQLLYYVNLLLIDHRFLLRHGEYVLHMWQLSGKGEDQGSFNADKLTSGTNPDKEDSMSISILLDNYCHPIALPKHRPTPDPEGDRVRAEMPNQLRKQLEAIIATDPLNPLTAEDKELLWHFRYESLKDPKAYPKLFSSVKWGQQEIVAKTYQLLAKREVWDQSALDVGLTMQLLDCNFSDENVRAIAVQKLESLEDDDVLHYLLQLVQAVKFEPYHDSALARFLLKRGLRNKRIGHFLFWFLRSEIAQSRHYQQRFAVILEAYLRGCGTAMLHDFTQQVQVIDMLQKVTIDIKSLSAEKYDVSSQVISQLKQKLENLQNLNLPQSFRVPYDPGLKAGALVIEKCKVMASKKKPLWLEFKCADPTALSNETIGIIFKHGDDLRQDMLILQILRIMESIWETESLDLCLLPYGCISTGDKIGMIEIVKDATTIAKIQQSTVGNTGAFKDEVLSHWLKEKCPIEEKFQAAVERFVYSCAGYCVATFVLGIGDRHNDNIMISETGNLFHIDFGHILGNYKSFLGINKERVPFVLTPDFLFVMGTSGKKTSLHFQKFQDVCVKAYLALRHHTNLLIILFSMMLMTGMPQLTSKEDIEYIRDALTVGKSEEDAKKYFLDQIEVCRDKGWTVQFNWFLHLVLGIKQGEKHPA
# Molecular target: free p120 PI3K catalytic subunit (Sus scrofa, UniProt O02697)
# Experiment: PI3K assay on free recombinant p120 (Sf9-derived)
# Format: biochemical, porcine
# Protocol: Assays contained either 7 nM p101/p120 or 36 nM p120 alone (final concentrations) which were incubated with various reagents; 10 mM NaF and 30 μM AlCl3 (A/F) ; 1 μM Gβγ-subunits (βγ); 2 μM Gα-GDP; 100 nM wortmannin (W) or 50 μM tyrosine phosphorylated peptide (PY) for a total of 15 minutes (at 0° C.) prior to starting the assays by adding [γ^32 P]-ATP; [^32 P]-incorporated into [^32 P]-PtdIns(3,4,5) P3 was quantified. The data shown are means (n=2).
# Purified aliquots of Sf9 -derived or pig neutrophil cytosol-derived PI3K were diluted in ice-cold 0.12M NaCl, 25 mM HEPES, 1 mM EGTA, 1 mM DTT, 1 mg-ml^-1 BSA, 1% betaine, 0.02%, w/v, Tween-20, pH 7.4, 0° C. to an appropriate extent, then 5 μl aliquots were stored on ice until assayed. […] 30 μl of a mixture of phospholipids with or without Gβγs and/or Gαs (either GDP-bound or activated) was added to the 5 μl fractions, or 10 μl of beads, and mixed. After 10 minutes on ice, 5-10 μl of last wash buffer, supplemented with MgCl2 to give a final concentration in the extant assay volume of 3.5 mM, was added and mixed. Six minutes later, 5 μl of last wash buffer was added (to give a final assay volume of 50 μl) containing [^32 ]-ATP (typically 10 μCi assay^-1, Amersham, PB10168) and 3.5 mM MgCl2, tubes were mixed and transferred to a 30° C. water bath. […]
# Sequence of free p120 PI3K catalytic subunit (O02697 whole entry): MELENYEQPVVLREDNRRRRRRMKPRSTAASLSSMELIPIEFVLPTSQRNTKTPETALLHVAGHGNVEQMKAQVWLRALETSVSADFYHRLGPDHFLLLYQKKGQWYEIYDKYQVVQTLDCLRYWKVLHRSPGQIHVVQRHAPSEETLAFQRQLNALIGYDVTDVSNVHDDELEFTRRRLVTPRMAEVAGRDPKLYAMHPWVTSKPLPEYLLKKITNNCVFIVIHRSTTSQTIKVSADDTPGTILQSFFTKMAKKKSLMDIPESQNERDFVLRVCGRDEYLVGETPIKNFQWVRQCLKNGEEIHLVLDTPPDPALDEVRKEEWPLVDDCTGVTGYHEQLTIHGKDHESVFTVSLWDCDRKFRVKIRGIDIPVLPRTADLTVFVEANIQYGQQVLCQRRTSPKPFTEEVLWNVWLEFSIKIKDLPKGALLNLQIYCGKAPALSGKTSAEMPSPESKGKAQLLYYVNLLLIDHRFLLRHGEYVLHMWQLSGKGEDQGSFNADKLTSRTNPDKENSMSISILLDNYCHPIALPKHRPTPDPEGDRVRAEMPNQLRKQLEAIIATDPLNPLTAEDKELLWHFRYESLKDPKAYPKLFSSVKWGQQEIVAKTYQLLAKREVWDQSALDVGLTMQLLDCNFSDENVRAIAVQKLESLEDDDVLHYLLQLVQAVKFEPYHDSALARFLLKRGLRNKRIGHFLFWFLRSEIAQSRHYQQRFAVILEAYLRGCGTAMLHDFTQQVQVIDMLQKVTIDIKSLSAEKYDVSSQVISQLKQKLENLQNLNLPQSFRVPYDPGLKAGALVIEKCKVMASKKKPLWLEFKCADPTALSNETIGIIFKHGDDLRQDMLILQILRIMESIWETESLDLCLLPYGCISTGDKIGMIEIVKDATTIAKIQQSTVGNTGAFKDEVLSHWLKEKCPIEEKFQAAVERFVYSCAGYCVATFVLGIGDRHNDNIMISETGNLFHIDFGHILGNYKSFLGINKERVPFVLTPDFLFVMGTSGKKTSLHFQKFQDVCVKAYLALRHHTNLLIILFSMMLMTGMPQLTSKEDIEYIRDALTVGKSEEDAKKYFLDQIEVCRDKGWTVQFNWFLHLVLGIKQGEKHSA
molecule,measurement,value
B1,reduction of p120 PI3K catalytic activity by removal of about 40 amino terminal residues (thrombin cleavage),20-30%
